Laboratory results: the nanobody polyreactivity screen of Harvey et al. (2022)

Assay: yeast display, Sf9 membrane polyspecificity reagent, FACS + sequencing; frameworks hold sequencing errors
In short: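 Nanobodies came from a synthetic yeast display library in Saccharomyces cerevisiae BJ5465, induced with galactose for 36–48 hours and stained for 1 hour at 4 °C with 10% biotinylated, detergent-solubilized Sf9 membrane reagent. Cells were enriched on streptavidin microbeads and then FACS-sorted, with low and high (top ~1%) gates set on anti-HA fluorescence for expression and streptavidin fluorescence for reagent binding. Each polyreactivity label reflects the gate a clone came from. Genes were amplified by colony PCR, sequenced by MiSeq 2 × 250 and filtered by CDR length.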

| Sequence | polyreactivity (PSR sort gate) |
| --- | --- |
| QVQLVESGGGLVQAGGSLRLSCAASGLIFTWNAMGWYRQAPGKERELVAAISTGGSTSYADSVKGRFTISRDNAKNTVYLQMNSLKPEDTAVYYCARDSSIWSHGSWYDYWGQGTQVTVSS | low polyreactivity |
| QVQLVESGGGLVQAGGSLRLSCAASGFTVWYYAMGWYRQAPGKVRELVASISSIGGSTYYADSVKGRFTISRENAKNTVYLQMNSLKPEDTAVYYCAARYKFLRGVVRRDYWGQGTQVTVSS | high polyreactivity |
| QVQLAESGGGLVQAGGSLRLSCAASGFILHHYTMGWYRQAPGKERELVAAISRSGGSTYYADSVKGRFTISRDNAKNTVYLQMNSLKPEDTAVYYCAKRVSTYGFSGYDYWGQGSQVTVSS | high polyreactivity |
| QVQLVESGGGLVQAGGSLRLSCAASGSIFSLYAMGWYRQAPGKERELVTAITSGGRTKYADSVKGRFTISRDNAKNTVYLQMNSLKPEDTAVYYCAARDDSEKRYLTQYAYNYWGQGTQVTVSS | low polyreactivity |
| QVQLVESGGGLVQAGGSLRLSCAASGYIFYYNTMGWYRQAPGKERELVAAISSAGSTNYADSVKGRFTISRDNAKNTVYLQMNSRKPEDTAVYYCAARTRFSYRRNSYGYWGQGTQVNVSS | high polyreactivity |
| QVQLVESGGGLVQAGGSLRLSCAASGIIFPGNVMGWYRQAPGKERELVAGISSSGSRTYYADSVKGRFTISRDNAKNTVYLQMNSLKPEDTAVYYCAAEHQRSRGRRYYIGYDYWGQGTQVTVSS | low polyreactivity |
| QVQLVESGGGLVQAGGSLRLSCAASGIIFSYYDMGRYRQAPGKERELVATITGNGGSTYYADSVKGRFTISRDNAKNTVYLQMNSLKPEDTAVYYCAAQTTVYIYDYWGQGTQVTVSS | low polyreactivity |
| QVQLVESGGGLVQAGGSLRLSCAASGSTIIGYTMGWYRQAPGKERELVADISNGGSTNYADSVKGRFTISRDNAKNTVYLQLNSLKPEDTAVYYCNAEAWYYWGWPFFIATYDYWGQGTQVTVSS | low polyreactivity |
| QVQLVESGGGLVQEGGSLRLICAASGNTSPFYSMGWYRQAPGKERELVAAISANGGSTTYADSVKGRFTISRDNAKNTVYLQMNSLKTEVTAVYYCNTYYWYSGSPYVYWGQGTQVTVSS | low polyreactivity |
| QVQLVESGGGLVQAGGSLRLSCAASGSIFLVYAMGWYRQAPGKERELVAAISQRVGRTYYADSVKGRFTISRDNAKNTVYLQMNSLKPEDTAVYYCNARVYDPTRGFNYWGQGTQVTVSS | high polyreactivity |
| QVQLVESGGGLVQAGGSLRLSCAASGRIIWINAMGWDRQAPGKERELVATITKRGGRTYYADSVKGRFTISRDNAKNTVYLQMNSLKPEDTAVYSCNTGHEARHSQYQGGVYQDMGYWGQGTQVTVSS | low polyreactivity |
| QVQLVESGGGLVQAGGSLRISCAASGRIFYYNVMGWYRQAPGKEWELVASISYSSTRTYYADSVKGRFTISRDNGMNTFYLQMNSLKPEDTAVYYCAVDGYSYYSMDYWGQGTQVTVSS | low polyreactivity |
| QVQLVESGGGLVQAGGSLRLSCAASGSIFYYYAMGWYRQAPGKERELVASITSGARTNYADSVKGRFTISRDNAKNTVYLQMNILKPEDTAVFYCAADIKWSIRRAYDYWGQGTQVTVSS | high polyreactivity |
| QVQLVESGGGLVQAGGSLRLSCAASASTLYSYAMGWYRQAPGKEREFVAAITSDDGSKYYADSVKGRFTISRDNAKNTVYLQMNSLKQEDTAVYYCATAASVEYNYWGEGTQVTVSS | low polyreactivity |
| QVQLVESGGGLVQAGGSLRLSCAASGRIFSPYAMGWYRQAPGKERELVATITSGGSTNYADSVKGRFTISRDNAKNTVYLQKNSLKPEDTAVYYCNAVYYSNPYYYSRVWQYYYWGQGTQVTVSS | low polyreactivity |
| QVQLVESGGRLVQAGGTLRLSCAASGNIFFVYDMGWYRQPPGKESELVAAISWSGGSTYADSVKGRFTISRDNAKNTVYLQMNSLKPEDTAVYYCAADVAYVEYDYWGQGTQVTVSS | low polyreactivity |
| QVQLVESGGCLVQAGGSLRLSCAASGRTFRSNAMGWYRQAPGKERELVAAITIGGSTTYADSVKGRFTISRDNAKNTVYLQMISLKREDSAVYYCKARDYYPYDYWGKGTQVTVSS | high polyreactivity |
| QVQLVESGGCLVQAGGSLRLRCAASGSTFDDNVKGWYRPAPRKDRELVAAISSSGGSTYYADSVKGRFTISRDNAKNTVYLQMNSLKPEDTAVYYCNAVYFGLWGYYSRRSYNYWGQGTQVNVSS | low polyreactivity |
| QFQLVETRRGLVQAGGSLRLSCAASGSIFLENAMRRYRQAPGKERELVAVINSGDSTYYADSVKGRFTMSRDNAKNTVYLQMNSLKPEDTSVYYCAADRDVRTRVFSYDYWGQGTQVTVSS | low polyreactivity |
| QVQLVESGGGLVQARGSLRLSCAASGRTLTYNAMGWYRPAPGKERELVAVISSRGDTTYYADSVKGRFTISRDNAKNTVYLQRNSLKPEDTAVYFCNSALSGRRSYYYWGQGTQVTVSS | low polyreactivity |

| Sequence | polyreactivity (PSR sort gate) |
| --- | --- |
| QVQLVESGGGLVQAGGSLRLSCAASGRTFYINAMGWYRQAPGKERELVAGITRGGSTNYADSVKGRFTISRDNAKNTVYLQMNSLKPEDTAVYYCNAARAERWGRGSYPEFDYWGQGTQVTVSS | high polyreactivity |
| QVQLVESGGGLVQAGGSLRLSCAASGSIFYYNTMGWYRQAPGKERELVAGISWGGGRTYYADSVKGRFTISRDNAKNTVYLQMNSLKPEDTAVYYCNARHRRLPSNGGYDYWGQGTQVTVSS | high polyreactivity |
| QVQLVETGGGLVQAGGSLRLSCAASGNTFHSNAMGCYSQAPGKERELVAAITPSDGDPYYADSVKGRFTISRDNAKNTVYLQMNSLKPEDTAVYYCAAEDDPGEYEYWGQGTQVTVSS | low polyreactivity |
| QVQLVESGGGLVQAGGSLRLSCAASGSIFKRYAMGWYRQAPGKERELVASISSRGSSTNYADSVKGRFTISRDNAKNTVYLQMNSLKPEDTAVYYCAAEVYRGKYWSTYRGGDYWGQGTQVTVSS | high polyreactivity |
| QVQLVESGGGLVQAGGSLRLSCAASGRTFGQYVMGWYRQAPGKERELVAAIRSGGSTYYADSVKGRFTISRDNAKNTVYLQMNSLKPEDTAVYYCAKETYYGTDNFGQVGGEMDYWGQGTQVTVSS | low polyreactivity |
| QVQLVESGGGLVQAGGSLRLSCAASGGIFGGYAMGWYRQAPGKAGALVAVITSGGSTYYADSVKGRFTISRDNAKNTVYLQMNSLKPEDTAVYYCAADGHSYSYSTYDYWGQGTQVTVSS | low polyreactivity |
| QVQLQESGGGLVQAGGDLRLSCAASGNIFRDYIMGWNRQAPGKEREFVAGIDRGANTNYADSVKGRFTISRDNAKNTVYLQMNSLKPEDTAVYYCAVHTDIVPDFIYWGQGTQVTVSS | low polyreactivity |
| QVQLVESCGGLVQAGGRLRLSCAASGRNFQQYAMGWSRQAPGKERELVAAISRGGSTYYADSVKGRFTISRDNAKNTVYLQMNRLKPEDTAVYYCAARWWRRFSGSHSLYDYWGQGTQVTVSS | high polyreactivity |
| QVQLVESGGGLVQAGGSLRLSCAASGSTFRSYAMGWYRQAPGKERELVAAITWRGGSTDYADSVKGRFTISRDNAKNTVYLQMNSLKPEDTAVYYCAAAIWGDYGAYDYWGQGTQVTVSS | low polyreactivity |
| QVQLVESGGGLVQAGGSLRLSCAASGSIFYRYAMGWYRQAPGKERELVATITRRGGTTYYADSVKGRFTISRDNAKNTVYLKMNSLKPEDTAVYYCARPYLRASYGAIDYDYWGQGTQVTVSS | high polyreactivity |
| QVQLVESGGGFVQAGGSLRLSCAASGRTFRWNAMGWYRQAPGKERELVAAISSGGSTYYADSVKGRFTISRDNAKNTVYLQMNSLKPEDTAVYYCAKTSFKYRWSYPVISMDYWGQATQVTVSS | high polyreactivity |
| QVQLEESGRGLVQAGVSLRLSCAASGSTFYRYAMGWYRQAPGKERELVAANSQSGARTYYADSVKGRFTISRDNAKNTVYLQINSLKPEDTAVYYCAAYPVVNEFDYWGQGTQVTVSS | high polyreactivity |
| QVQLVESGGGLVQAGGSLRLSCAASGNIFFSNAMGWYRQAPGKERELGASISQSGGSTYYADAVKGRFTISRDNAKNTVYLQMNSLKPEDTAVYYCAATQVRRGPAWGRDYWGQGTQETVSS | low polyreactivity |
| QVQLVESGGGLVQAGGSLRLTCAASGSIFGGYTMGWYRQAPGKERELVAAISRRGGNTYYADSVKGRFTISRDNAKYTVYLQMNSLKPEDTAVYYCNARPTTYNYDYWGQGTQVTVSS | high polyreactivity |
| QVQLVESVGGLVQAGGSLRLSCAASGSIFGTYAMGWYRQAPGKERELVAAISWRGGTYYADSVKGRFTISRDNAKNTVYLQMNSLKPEDTAVYYCNKLYTHRALGRLDYWGQGTQVTVSS | high polyreactivity |
| QVQLVESGGGLVQAGGSLRLSCAASGRIFTYYAMGWYRQAPGKERELVASISKSSGSTYYADSVKGRFTISRDNAKNTVYLQMNSLKPEDTAVYYCATDPYVRRSPSWYDYWGQGTQVTVSS | low polyreactivity |
| QVQLVESGGGLVQAGGSLRLSCAASGFTFLTYLMGWYRQAPGKERELVASISGSGGTTYYADSVKGRFTISRDNAKNTVYLQMNSLKPEDTAVYYCAASGRYRRYYKFNYWGQGTQVTVSS | high polyreactivity |
| QVQLVESGGGLVQAGGSLRLTCAASGFTFRYYAMGWSRQAPGKERELVATISTGSGVSTYYADSVKGRFTISRDNAKNTVYLQMNSLKPEDTAVYYCAAVFGWRRYVTYDYWGQGTQVTVSS | low polyreactivity |
| QVQLVESGGGLVEAGGSLRLSCAASGGTFLRYAMGWSIQAPGKERELVAAITYRNGRTYYADSVKGRFTISRDNAKNTVYLQMNSLKPEDTAVYYCAADSTPRGNPAYDYYYWGQGTQVTVSS | high polyreactivity |
| QVQLVESGAGLVQAGVSLRLSCAASGSIFADYAMGWYRQAPGKERELVAVISRRGGTTYYADSVKGRFTISRDNAKNTVYLPMNSLKPEDTAVYYCAARRSFNEYDYWGQGTQVTVSS | high polyreactivity |
